Patent publication US20200255836
pKd: −log10 of the molar value.

Target: Cas9 (His-Cas9) (Streptococcus pyogenes) (UniProt Q99ZW2)
Assay: SPR
Conditions: Cas9 without guide; 20 mM Tris pH 8.0, 150 mM NaCl, 1 mM MgCl2

Sequence of Cas9 (His-Cas9) (Streptococcus pyogenes) (Q99ZW2 whole entry): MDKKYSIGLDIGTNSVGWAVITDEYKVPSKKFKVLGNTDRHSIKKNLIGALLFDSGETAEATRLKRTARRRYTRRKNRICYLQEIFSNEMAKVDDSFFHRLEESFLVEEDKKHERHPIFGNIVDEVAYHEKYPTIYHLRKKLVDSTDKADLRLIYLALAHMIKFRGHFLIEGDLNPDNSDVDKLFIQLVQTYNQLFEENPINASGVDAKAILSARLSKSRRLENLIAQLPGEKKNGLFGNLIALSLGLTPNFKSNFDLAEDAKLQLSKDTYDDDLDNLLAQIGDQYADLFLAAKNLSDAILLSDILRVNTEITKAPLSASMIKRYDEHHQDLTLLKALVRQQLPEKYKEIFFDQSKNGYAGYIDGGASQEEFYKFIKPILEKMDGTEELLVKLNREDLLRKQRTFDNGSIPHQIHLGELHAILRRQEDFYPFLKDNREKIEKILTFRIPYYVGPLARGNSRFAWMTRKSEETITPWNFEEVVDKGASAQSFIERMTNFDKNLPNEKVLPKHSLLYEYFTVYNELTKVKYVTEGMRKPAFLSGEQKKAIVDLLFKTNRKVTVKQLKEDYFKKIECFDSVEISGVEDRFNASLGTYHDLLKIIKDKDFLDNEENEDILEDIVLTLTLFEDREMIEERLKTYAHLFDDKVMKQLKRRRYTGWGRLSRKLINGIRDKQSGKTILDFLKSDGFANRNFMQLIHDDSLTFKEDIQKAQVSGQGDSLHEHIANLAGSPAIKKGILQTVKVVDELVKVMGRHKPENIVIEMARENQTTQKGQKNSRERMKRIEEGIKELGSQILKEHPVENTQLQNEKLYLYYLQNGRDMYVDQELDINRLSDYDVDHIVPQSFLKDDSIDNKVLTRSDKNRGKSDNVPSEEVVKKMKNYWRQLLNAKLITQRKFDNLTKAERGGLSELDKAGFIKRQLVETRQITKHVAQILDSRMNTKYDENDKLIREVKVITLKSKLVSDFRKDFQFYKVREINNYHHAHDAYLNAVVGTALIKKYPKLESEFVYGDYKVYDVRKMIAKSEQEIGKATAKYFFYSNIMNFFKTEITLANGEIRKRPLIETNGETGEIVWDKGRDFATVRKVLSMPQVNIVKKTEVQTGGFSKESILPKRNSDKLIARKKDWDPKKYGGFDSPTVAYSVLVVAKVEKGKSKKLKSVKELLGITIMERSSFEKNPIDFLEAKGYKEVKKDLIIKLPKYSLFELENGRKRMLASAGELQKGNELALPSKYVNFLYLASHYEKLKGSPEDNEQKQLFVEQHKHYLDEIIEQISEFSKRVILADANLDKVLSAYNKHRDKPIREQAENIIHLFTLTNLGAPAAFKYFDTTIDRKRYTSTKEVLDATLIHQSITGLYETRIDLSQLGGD

## GAGGCTCTCACATCGGTAACGGTGTGAGAGCCTC [Tetra]
  pKd: 5.06
